{
  "source": "patent US20140024076A1",
  "about": "(AstraZeneca / MedImmune, published 2014)",
  "binders": {"B1": {"name": "motavizumab (antibody, V domains shown)", "VH": "QVTLRESGPALVKPTQTLTLTCTFSGFSLSTAGMSVGWIRQPPGKALEWLADIWWDDKKHYNPSLKDRLTISKDTSKNQVVLKVTNMDPADTATYYCARDMIFNFYFDVWGQGTTVTVSS", "VL": "DIQMTQSPSTLSASVGDRVTITCSASSRVGYMHWYQQKPGKAPKLLIYDTSKLASGVPSRFSGSGSGTEFTLTISSLQPDDFATYYCFQGSGYPFTFGGGTKVEIK"}},
  "target": "RSV-F protein, full-length, human RSV strain A2 (human respiratory syncytial virus, …, UniProt P03420 26-574)",
  "experiment": "25 nM Eu3+-labeled antibody on tetracycline-induced 293-derived cells, 44 h post induction; time-resolved fluorescence, R3-47 nonspecific binding subtracted",
  "data": [
    {"binder": "B1", "values": [
      {"measurement": "fold amount of antibody bound, FGC-WPRE cell line compared to FGC cell line", "result": 6.31, "unit": "fold"}
    ]}
  ]
}
